Experimental data: patent publication US20240309102A1 (LENTIGEN TECHNOLOGY, published 2024)

T1: recombinant human CD123-Fc (human, UniProt P26951 19-305, limits assumed)
T1 construct: Panning and sorting antigen; not shown: Fc part
T1 sequence (looked up): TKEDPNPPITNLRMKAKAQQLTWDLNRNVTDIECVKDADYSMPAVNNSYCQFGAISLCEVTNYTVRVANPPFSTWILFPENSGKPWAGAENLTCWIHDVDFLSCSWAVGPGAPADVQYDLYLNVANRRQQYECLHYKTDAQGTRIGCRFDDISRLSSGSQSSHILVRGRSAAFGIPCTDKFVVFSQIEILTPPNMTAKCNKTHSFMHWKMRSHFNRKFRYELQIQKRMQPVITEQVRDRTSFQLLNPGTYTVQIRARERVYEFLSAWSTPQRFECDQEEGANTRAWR

B1: CD123 hScFv binder M12309 (scFv)
scFv: EVQLVQSGAEVKKPGATVKISCKVSGYTFTDYYMHWVQQAPGKGLEWIGLVDPEDGETIYAEKFQGRVTITADTSTDTAYMELSSLRSEDTAVYYCATAPLGEVGAAVDYWGQGTLVTVSSGGGGSGGGGSGGGGSHVILTQPPSVSAAPGQEVSISCSGSDANIGTNLVSWYQHVPGTAPKLLIYENSKRPSGIPARFSSSQSGTSATLAISGLQSGDEAIYYCLTWDRTLSGKIFGGGTQLTVLG
B2: CD123 hScFv binder M12315 (scFv)
scFv: QVQLQQWGAGLLKPSETLSLTCAVYGGSFSGYYWSWIRQPPGKGLEWIGEINHSGSTNYNPSLKSRVTISVDTSKNQFSLKLSSVTAADTAVYYCARGQVKYSSSLGYWGQGTLVTVSSGGGGSGGGGSGGGGSQSVLTQPPSVSAAPGQKVTISCSGSSSNIGNNFVSWYQQLPGTAPKLLIYEDNKRPSGIPDRFSGSRSGTSATLGITGLQTGDEADYYCGTWDSSLGAWVFGGGTKLTVLG
B3: CD123 hScFv binder M12305 (scFv)
scFv: QVQLVQSGAEVKKPGSSVKVSCKASGGTFSSYAISWVRQAPGQGLEWMGGIIPIFGTANYAQKFQGRVTITTDESTSTAYMELSSLRSEDTAVYYCARRGWGGFSSGSAFDIWGQGTMVTVSSGGGGSGGGGSGGGGSNFMLTQPHSVSESPGNTVTISCTGSSGTIGSNFVQWYQQSPGRAPTLLIYEDTKRPSGVPPRFAGSVDSSSNSASLTISGLKTEDEADYYCQSYDSSNWVFGGGTKLTVLG
B4: CD123 hScFv binder M12303 (scFv)
scFv: EVQLVETGAEVKKPGASVKVSCKASGYTFTTYYVHWVRQAPGQGLEWMGIINPSGGSTSYAQKFQGRVTMTRDTSTSTVYMELSSLRSEDTAVYYCARDGGLGGYEAWGQGTLVTVSSGGGGSGGGGSGGGGSDIQLTQSPSALSASAGDRVTITCQASQDISNYLNWYQQKPGKAPKLLIYDASNLERGVPSRFSGSGSGTEFTFTISSLQPEDIATYYCQQYDNLPITFGQGTRLEIK
B5: CD123 hScFv binder M12317 (scFv)
scFv: QVQLVETGGGLVKPGGSLRLSCAASGFTFSSYSMNWVRQAPGKGLEWVSSISSSSSYIYYADSVKGRFTISRDNAKNSLYLQMNSLRAEDTAVYYCARDGDFWSGAIDYWGQGTLVTVSSGGGGSGGGGSGGGGSDIQLTQSPSSLSASVGDRVTITCQASQDISNYLNWYQQKPGKAPKLLIYDASNLETGVPSRFSGSGSGTDFTFTISSLQPEDIATYYCQQYDNLPLFGGGTKLEIK
B6: CD123 hScFv binder M12308 (scFv)
scFv: EVQLVETGAEVKNPGSSVKVSCKASGGTLSNYAISWVRQAPGKGLEWMGGIIPIFGTANYAQKFQGRVTITADESTSTAYMELSSLRSEDTAVYYCARRSSWYPEGCFQHWGQGTLVTVSSGGGGSGGGGSGGGGSDIQLTQSPSSLSASTGDRVTITCRASQGISSYLAWYQQKPGKAPKLLIYAASTLQSGVPSRFSGSGSGTDFTLTISCLQSEDFATYYCQQYYSYPLTFGGGTKLDIK
B7: CD123 hScFv binder M12318 (scFv)
scFv: EVQLVQSGGGVVQPGRSLRLSCAASGFTFSSYSMNWVRQAPGKGLEWVSSISSSSSYIYYADSVKGRFTISRDNAKNTLYLQMNSLRAEDTAVYYCARDNWGSLDYWGQGTLVTVSSGGGGSGGGGSGGGGSDIQMTQSPSSLSASVGDRVTITCQASQDISNYLNWYQQKPGKAPKLLIYDASNLETGVPSRFSGSGSGTDFTFTISSLQPEDIATYYCQQYDNLPHMYTFGQGTKLEIK
B8: CD123 hScFv binder M12314 (scFv)
scFv: EVQLVQSGAEVKKPGSSVKVSCKASGGTFSSYAISWVRQAPGQGLEWMGGIIPIFGTANYAQKFQGRVTITADESTSTAYMELSSLRSEDTAVYYCARVGCSGGSCYPDYWGQGTLVTVSSGGGGSGGGGSGGGGSEIVLTQSPSSLSASVGDRVTITCQASQDISNYLNWYQQKPGKAPKLLIYDASNLETGVPSRFSGSGSGTDFTFTISSLQPEDIATYYCQQYDNLPLTFGGGTKLDIK
B9: CD123 hScFv binder M12313 (scFv)
scFv: EVQLVQSGAEVKKPGSSVKVSCKASGGTFSSYAISWVRQAPGQGLEWMGGIIPIFGTANYAQKFQGRVTITADESTSTAYMELSSLRSEDTAVYYCASQKGGGWSIDAFDIWGQGTMVTVSSGGGGSGGGGSGGGGSQSVLTQPPSVSAASGQRVTISCSGSSSNIGNNYASWYQQLPGMAPKLLIYEDNKRPSGISDRFSGSQSGTSASLAITGLQAEDEADYYCQSYDSSLSGDVVFGGGTKLTVLG
B10: CD123 hScFv binder M12306 (scFv)
scFv: EVQLVQSGSELKKPGASVKVSCKASGGTFSSYAISWVRQAPGQGLEWMGGIIPIFGTANYAQKFQGRVTITADESTSTAYMELSSLRSEDTAVYYCASTARRGWDTAGPLDYWGQGTLVTVSSGGGGSGGGGSGGGGSDIQMTQSPSSLSASVGDRVTIACRASQTISRYLNWYQQKPGKAPKLLIYAASSLQSGVSSRFSGSGSGTEFTLTISSLQPEDFATYFCQQTYSPPITFGQGTRLEIK
B11: CD123 hScFv binder M12311 (scFv)
scFv: EVQLVQSGAEVKKPGSSVKVSCKASGGTFSSYAISWVRQAPGQGLEWMGGIIPIFGTANYAQKFQGRVTITADESTSTAYMELSSLRSEDTAVYYCARARLGGAFDIWGQGTMVTVSSGGGGSGGGGSGGGGSQSVLTQPPSVSAAPGQKVTISCSGGSSNIGNHYVSWYQQLPGAAPKLLIYDDNKRPSGIPDRFSGSRSGTSATLGITGLQSGDEADYYCGTWDSSLAAHVFGTGTKVTVLG
B12: CD123 hScFv binder M12316 (scFv)
scFv: EVQLVESGGGLVQPGGSLRLSCAASGFTFSSYAMHWVRQAPGKGLEWVSSISSSSSYIYYADSVKGRFTISRDNSKNTLYLQMNSLRAEDTAVYYCARDWDDAFDIWGQGTTVTVSSGGGGSGGGGSGGGGSDIQMTQSPSSLSASVGDRVTITCQASQDISNYLNWYQQKPGKAPKLLIYDASNLETGVPSRFSGSGSGTDFTFTISSLQPEDIATYYCQQYDNLPLTFGGGTKLEIK

Biological target: T1, recombinant human CD123-Fc
Assay: yeast display; 3 rounds of MACS and a FACS sort (top 1%) with CD123-Fc; clone sequenced from the sorted pool, not tested singly
Description: A large yeast display human naive single chain variable fragment (ScFv) antibody library was used to isolate anti-human CD123 antibodies described herein. The library was constructed using a collection of human antibody gene repertoires from more than 60 individuals. Three rounds of magnetic-activated cell sorting (MACS) were performed to enrich human ScFv binders to the recombinant human CD123-Fc. For the first round of yeast library panning, the yeast display ScFv library (5×10¹⁰ cells) was incubated with 5 μg/mL CD123-Fc in 15 ml PBSA (consisting of 0.1% Bovine Serum Albumin (BSA) in Dulbecco's phosphate-buffered saline (PBS) buffer), at room temperature on a rotator for 1.5 hours. After two times washing with 25 ml PBSA, the yeast library mix was incubated with 100 μL Protein G microbeads (Miltenyi Biotec) at room temperature on a rotator for 30 minutes. After one time washing, the library mix was resuspended in 50 ml of PBSA and loaded onto the MACS cell separation column (LS column). After three times washing with 10 ml PBSA. […] These eluted yeast cells were combined and then resuspended into 50 ml SDCAA medium (20 g D-glucose, 6.7 g BD Difco™ Yeast Nitrogen Base without Amino Acids, 5 g Bacto™ Casamino Acids, 5.4 g Na2·HPO4, and 8.56 g NaH2PO4·H2O in 1 L water) and amplified with shaking at 225 rpm at 30° C. for 20 hours. The amplified pool was then induced in SGCAA medium (consisting of the same composition of SDCAA medium, but containing galactose instead of glucose), with shaking at 225 rpm at 30° C. for another 16 hours and used for next round of panning. The same process was repeated two more times to enrich the CD123-Fc specific binders.
To further enrich the binders with higher affinity and better specificity, FACS based sorting was employed to isolate the strongest binders from the pool. The induced pool was incubated with 1 μg/ml of CD123-Fc at room temperature for 1 hour and then stained with Anti-c-Myc-Alexa 488 and Goat anti-Hu-Fc PE conjugates, the top 1% of the pool with the highest PE versus FITC signal was gated and sorted. The sorted pool was amplified in SDCAA medium and yeast plasmid DNA was extracted and transformed into bacterial for single clone DNA sequencing. 40 random clones were sequenced and 36 unique sequences were identified.

Binding result, binds:
B1
B2
B3
B4
B5
B6
B7
B8
B9
B10
B11
B12
